From patent US20220340682A1 (Sanofi, published 2022)
Positions count from the first letter of the chain named. Values joined by “and” are separate entries in the source; they are usually repeats but may differ in a detail not shown here. Equal values may be shown once.

T1: hCEACAM8, human CEACAM8 ECD (35-332) (human, UniProt P31997 35-332)
T1 construct: With 24 amino acid extension containing a His-Tag
T1 sequence: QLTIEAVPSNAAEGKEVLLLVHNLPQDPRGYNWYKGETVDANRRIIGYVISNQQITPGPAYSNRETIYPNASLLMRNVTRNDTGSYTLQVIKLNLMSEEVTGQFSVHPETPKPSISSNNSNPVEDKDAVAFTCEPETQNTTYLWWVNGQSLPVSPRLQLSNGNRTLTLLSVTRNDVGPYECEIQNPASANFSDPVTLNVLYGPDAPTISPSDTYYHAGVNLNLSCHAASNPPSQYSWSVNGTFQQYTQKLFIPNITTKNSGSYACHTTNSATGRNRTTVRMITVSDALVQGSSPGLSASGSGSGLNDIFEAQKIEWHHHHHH

T2: hCEACAM7, human CEACAM7 ECD (36-248) (human)
T2 construct: With 24 amino acid extension containing a His-Tag
T2 chain: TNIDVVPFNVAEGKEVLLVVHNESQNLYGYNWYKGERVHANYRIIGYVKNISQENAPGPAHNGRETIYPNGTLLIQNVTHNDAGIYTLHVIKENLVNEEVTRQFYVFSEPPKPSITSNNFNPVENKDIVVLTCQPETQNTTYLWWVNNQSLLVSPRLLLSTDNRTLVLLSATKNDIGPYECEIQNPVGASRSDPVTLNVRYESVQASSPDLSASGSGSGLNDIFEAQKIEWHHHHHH

T3: hCEACAM6, human CEACAM6 ECD (35-327) (human, UniProt P40199 35-327)
T3 construct: With 24 amino acid extension containing a His-Tag
T3 sequence: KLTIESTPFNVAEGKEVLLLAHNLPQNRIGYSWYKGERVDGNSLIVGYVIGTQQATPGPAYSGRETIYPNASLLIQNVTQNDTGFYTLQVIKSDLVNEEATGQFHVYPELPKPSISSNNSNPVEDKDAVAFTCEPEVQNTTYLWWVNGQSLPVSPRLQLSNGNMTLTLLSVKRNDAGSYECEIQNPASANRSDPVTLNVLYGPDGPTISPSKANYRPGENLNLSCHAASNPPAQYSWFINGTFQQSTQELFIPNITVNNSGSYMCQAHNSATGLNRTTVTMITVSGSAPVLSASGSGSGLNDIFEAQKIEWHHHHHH

T4: hCEACAM5, human CEACAM5 ECD (35-685) (human, UniProt P06731 35-685)
T4 construct: produced in HEK293; also called human CEACAM5 protein; human CEACAM5 extracellular domain
T4 sequence: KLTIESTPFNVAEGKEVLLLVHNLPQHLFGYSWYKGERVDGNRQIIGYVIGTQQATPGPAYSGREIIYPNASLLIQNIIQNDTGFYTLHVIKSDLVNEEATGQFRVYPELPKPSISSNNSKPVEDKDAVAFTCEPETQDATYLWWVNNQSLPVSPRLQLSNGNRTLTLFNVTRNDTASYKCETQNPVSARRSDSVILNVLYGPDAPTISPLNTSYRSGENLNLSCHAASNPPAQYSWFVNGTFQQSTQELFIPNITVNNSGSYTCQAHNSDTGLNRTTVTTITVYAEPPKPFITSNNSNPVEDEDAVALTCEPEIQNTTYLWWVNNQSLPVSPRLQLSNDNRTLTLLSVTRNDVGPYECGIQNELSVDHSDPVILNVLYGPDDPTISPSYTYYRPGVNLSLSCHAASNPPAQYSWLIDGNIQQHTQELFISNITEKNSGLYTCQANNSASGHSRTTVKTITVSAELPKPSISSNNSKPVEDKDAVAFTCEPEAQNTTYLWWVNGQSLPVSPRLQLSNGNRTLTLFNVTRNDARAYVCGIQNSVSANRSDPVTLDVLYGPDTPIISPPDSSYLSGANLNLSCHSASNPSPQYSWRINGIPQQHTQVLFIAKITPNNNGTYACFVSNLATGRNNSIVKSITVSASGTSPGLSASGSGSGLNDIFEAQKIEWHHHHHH

T5: cCEACAM5, M. fascicularis CEACAM5 ECD (35-688) (Macaca fascicularis)
T5 construct: ECD followed by a 24 amino acid extension containing a His-Tag; also called cynomolgus CEACAM5; monkey CEACAM5
T5 chain: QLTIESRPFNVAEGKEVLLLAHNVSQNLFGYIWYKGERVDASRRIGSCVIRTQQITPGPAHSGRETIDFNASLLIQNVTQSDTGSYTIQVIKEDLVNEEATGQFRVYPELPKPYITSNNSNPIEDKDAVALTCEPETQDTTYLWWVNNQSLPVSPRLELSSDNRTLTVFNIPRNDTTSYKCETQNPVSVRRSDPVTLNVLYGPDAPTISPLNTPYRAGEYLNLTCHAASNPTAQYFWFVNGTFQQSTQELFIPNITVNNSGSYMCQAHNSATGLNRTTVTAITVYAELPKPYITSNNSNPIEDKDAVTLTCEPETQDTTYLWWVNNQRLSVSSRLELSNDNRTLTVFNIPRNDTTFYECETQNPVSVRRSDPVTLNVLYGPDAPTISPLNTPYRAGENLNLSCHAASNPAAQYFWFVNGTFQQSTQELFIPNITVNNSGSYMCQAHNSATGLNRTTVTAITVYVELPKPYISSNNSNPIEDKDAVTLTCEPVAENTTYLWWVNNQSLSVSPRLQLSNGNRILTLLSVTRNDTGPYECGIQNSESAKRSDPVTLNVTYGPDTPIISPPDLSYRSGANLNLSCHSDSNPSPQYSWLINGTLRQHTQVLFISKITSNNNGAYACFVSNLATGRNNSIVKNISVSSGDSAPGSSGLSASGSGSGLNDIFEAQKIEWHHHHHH

B1: huMAb2-3 (antibody, human IgG1, kappa, V domains shown)
VH: EVQLQESGPGLVKPGGSLSLSCAASGFVFSSYDMSWVRQTPERGLEWVAYISSGGGITYAPSTVKGRFTVSRDNAKNTLYLQMNSLTSEDTAVYYCAAHYFGSSGPFAYWGQGTLVTVSS
VL: DIQMTQSPASLSASVGDRVTITCRASENIFSYLAWYQQKPGKSPKLLVYNTRTLAEGVPSRFSGSGSGTDFSLTISSLQPEDFATYYCQHHYGTPFTFGSGTKLEIKR
notes: Humanized MAb2, human IgG1 / Ckappa; also called MAb2_VL1cVH1a-IgG1
B2: huMAb2-1 (antibody, V domains shown)
VH: B1 VH with G44R, A60F, V93I, S120A
VL: DIQMTQSPASLSASVGDTVTITCRASENIFSYLAWYQQKPGKSPKLLVYNTKTLAEGVPSRFSGSGSGTQFSLTISSLQPEDFGSYYCQHHYGTPFTFGSGTKLEIK
notes: Humanized MAb2 (VL1 + VH1) fused to human IgG1 and human Ckappa constant domains; also called MAb2_VL1VH1-IgG1; MAb2VL1VH1-IgG1
B3: huMAb2-2 (antibody, V domains shown)
VH: B1 VH
VL: B2 VL with T18R, Q70D, G84A, S85T
notes: Humanized MAb2 (VL1a + VH1a) fused to human IgG1 and human Ckappa constant domains; also called MAb2_VL1aVH1a-IgG1; MA2_VL1aVH1a-IgG1
B4: chMAb2 (antibody, human IgG1, kappa, V domains shown)
VH: EVQLQESGGVLVKPGGSLKLSCAASGFVFSSYDMSWVRQTPEKRLEWVAYISSGGGITYFPDTVQGRFTVSRDNAKNTLYLQMNSLKSEDTAIYYCAAHYFGSSGPFAYWGQGTLVTVSA
VL: B1 VL with D17E, R18T, P40Q, K45Q, R52K, D70Q, T74K, S76N, A84G, T85S
notes: Chimeric, human IgG1, Ck isotype; also called MAb2-IgG1; chimeric MAb2
B5: huMAb2-4 (antibody, human IgG1, kappa, V domains shown)
VH: B1 VH with G44R, A60F, V93I, S120A
VL: B1 VL with R18T, D70Q, A84G, T85S
notes: Humanized MAb2, human IgG1 / Ckappa; also called MAb2_VL1d VH1-IgG1; MAb2_VL1dVH1-IgG1

Molecular target: T1, hCEACAM8, human CEACAM8 ECD (35-332)
Test: ELISA

percentage of binding compared to full binding with human CEACAM5 [%]	Binder
0.6	B1
0.9	B2
0.5	B3
0.6	B4
1.4	B5

Molecular target: T2, hCEACAM7, human CEACAM7 ECD (36-248)
Test: ELISA

percentage of binding compared to full binding with human CEACAM5 [%]	Binder
0.3	B1
0.3	B2
0.3	B3
0.3	B4
0.3	B5

Molecular target: T3, hCEACAM6, human CEACAM6 ECD (35-327)
Test: ELISA

percentage of binding compared to full binding with human CEACAM5 [%]	Binder
0.3	B1
0.2	B2
0.3	B3
0.3	B4
0.3	B5

Molecular target: T4, hCEACAM5, human CEACAM5 ECD (35-685)
Test: ELISA, chimeric mAb

EC50	Binder
0.16 nM and 0.14 nM	B4

Molecular target: T5, cCEACAM5, M. fascicularis CEACAM5 ECD …
Test: ELISA, chimeric mAb

EC50	Binder
0.13 nM and 0.17 nM	B4
